Source: patent US20170334995A1 (Boehringer Ingelheim, published 2017)
Changes are numbered by the printed parent chain.

B1: PD1-1 (antibody, human IgG4 S228P, kappa, V domains shown)
VH: EVMLVESGGGLVQPGGSLRLSCTASGFTFSASAMSWVRQAPGKGLEWVAYISGGGGDTYYSSSVKGRFTISRDNAKNSLYLQMNSLRAEDTAVYYCARHSNVNYYAMDYWGQGTLVTVSS
VL: EIVLTQSPATLSLSPGERATMSCRASENIDTSGISFMNWYQQKPGQAPKLLIYVASNQGSGIPARFSGSGSGTDFTLTISRLEPEDFAVYYCQQSKEVPWTFGQGTKLEIKR
notes: Humanized derivative of murine 77E11; the HC is IgG4 (Pro), kappa light chain; also called anti-PD1 antibody PD1-1
B2: PD1-3 (antibody, human IgG4 S228P, kappa, V domains shown)
VH: B1 VH with A31K
VL: B1 VL with T31V
notes: Humanized derivative of murine 77E11; the HC is IgG4 (Pro), kappa light chain; also called anti-PD1-3; representative anti-PD1 antibody of the invention
B3: PD1-2 (antibody, human IgG4 S228P, kappa, V domains shown)
VH: B1 VH with V102P
VL: B1 VL
notes: Humanized derivative of murine 77E11; the HC is IgG4 (Pro), kappa light chain; also called anti-PD1 antibody PD1-2
B4: 496G6 (antibody, V domains shown)
VH: QVTLKESGPGILQPSQTLSLTCSFSGFSLSTSDMGVGWIRQPSGKGLEWLAHIWWDDVKRYNPALKSRLTISKDTSSSQVFLMIASVDTADTATYFCARIEDYGVSYYFDYWGQGTTLTVSS
VL: DIVMTQSHKFMSTSVGDRVSFTCKASQDVNTAVAWYQQKPGQSPKLLIYSASYRYTGVPDRFTGSGSGTDFTFTISSVQAEDLALYYCQQHYSIPLTFGAGTKLELK
notes: Murine monoclonal antibody from a hybridoma; also called murine progenitor antibody 496G6; monoclonal antibody produced by 496G6
B5: LAG3-4 (antibody, human IgG4 S228P, kappa, V domains shown)
VH: QVTLVESGGGVVQPGRSLRLSCAFSGFSLSTSDMGVGWIRQAPGKGLEWVAHIWWDDVKRYNPALKSRFTISRDNSKNTLYLQMNSLRAEDTATYFCARIEDYGVSYYFDYWGQGTTVTVSS
VL: DIVMTQSPSFLSASVGDRVTITCKASQDVSTAVAWYQQKPGKAPKLLIYSASYRYTGVPDRFSGSGSGTDFTLTISSLQPEDFATYYCQQHYSIPLTFGQGTKLEIKR
notes: Humanized derivative of murine 496G6, human IgG4 (Pro) format, kappa; also called anti-LAG3 antibody LAG3-4
B6: LAG3-2 (antibody, human IgG4 S228P, kappa, V domains shown)
VH: QVTLKESGPTLVKPTQTLTLTCSFSGFSLSTSDMGVGWIRQPPGKALEWLAHIWWDDVKRYNPALKSRLTITKDTSKNQVVLTMTNMDPVDTATYFCARIEDYGVSYYFDYWGQGTTVTVSS
VL: B5 VL with V3Q, I21F
notes: Humanized derivative of murine 496G6, human IgG4 (Pro) format, kappa; also called anti-LAG3 antibody LAG3-2
B7: LAG3-1 (antibody, human IgG4 S228P, kappa, V domains shown)
VH: B5 VH with T94V
VL: B5 VL with V3Q, T20S
notes: Humanized derivative of murine 496G6, human IgG4 (Pro) format, kappa; also called representative anti-LAG3 antibody of the invention
B8: LAG3-5 (antibody, human IgG4 S228P, kappa, V domains shown)
VH: B6 VH with E101V
VL: B5 VL with V3Q, T20S, T85V
notes: Humanized derivative of murine 496G6, human IgG4 (Pro) format, kappa; also called anti-LAG3 antibody LAG3-5
B9: LAG3-3 (antibody, human IgG4 S228P, kappa, V domains shown)
VH: B5 VH with R19S, I39V, A42P, F96Y
VL: B5 VL with V3Q, Q100A
notes: Humanized derivative of murine 496G6, human IgG4 (Pro) format, kappa; also called anti-LAG3 antibody LAG3-3

Experiments:
[1] = biological target: T1, human PD1 expressed on the surface of CHO cells (human, UniProt Q15116 25-288); assay: blocking assay on cells: biotin-labelled human PD-L2 binding to PD1-expressing CHO cells, Europium-streptavidin fluorescence, % inhibition against antibody concentration [D]
T1 construct: whole, on cells; also called PD1 expressing CHO cells
Method: (§1) The mixture was incubated for 1 hour at 37 degrees celsius. […] Percentage inhibition values were calculated in Excel and curve fitting was done with GraphPad Prism. Data points of the curve are mean values of triplicate measurements.

[2] = biological target: T2, human PD1 ECD (human, UniProt Q15116 21-170); assay: SPR (ProteOn XPR36), antibody captured on Protein A/G, PD1 ECD as analyte, 1:1 Langmuir fit
T2 construct: range 21-170; also called recombinant monomeric human PD1; recombinant human PD1
Method: Binding affinities to recombinant monomeric human PD1 were measured by SPR using a ProteOn XPR36 instrument. […] Human PD1 ECD was injected over the captured antibodies for 600 sec at a flowrate of 30 ul/min and a dissociation for 1200 sec.

[3] = biological target: T1, human PD1 expressed on the surface of …; assay: ligand blocking on PD1-expressing CHO cells, competitor biotin-PD-L1
Method: as §1

[4] = biological target: T1, human PD1 expressed on the surface of …; assay: blocking assay on cells: biotin-labelled human PD-L1 binding to PD1-expressing CHO cells, Europium-streptavidin fluorescence, % inhibition against antibody concentration [A]
Method: as §1

[5] = biological target: T1, human PD1 expressed on the surface of …; assay: ligand blocking on PD1-expressing CHO cells, competitor biotin-PD-L2
Method: as §1

[6] = biological target: T1, human PD1 expressed on the surface of …; assay: blocking assay on cells: biotin-labelled human PD-L1 binding to PD1-expressing CHO cells, Europium-streptavidin fluorescence, % inhibition against antibody concentration [B]
Method: as §1

[7] = biological target: T1, human PD1 expressed on the surface of …; assay: blocking assay on cells: biotin-labelled human PD-L2 binding to PD1-expressing CHO cells, Europium-streptavidin fluorescence, % inhibition against antibody concentration [E]
Method: as §1

[8] = biological target: T3, human LAG3 (ECD) (human, UniProt P18627 23-450); assay: hybridoma screening
T3 construct: range 23-450; the screening reagent is called only 'human LAG3 (ECD)'; also called human LAG3 ECD protein
T3 sequence (looked up): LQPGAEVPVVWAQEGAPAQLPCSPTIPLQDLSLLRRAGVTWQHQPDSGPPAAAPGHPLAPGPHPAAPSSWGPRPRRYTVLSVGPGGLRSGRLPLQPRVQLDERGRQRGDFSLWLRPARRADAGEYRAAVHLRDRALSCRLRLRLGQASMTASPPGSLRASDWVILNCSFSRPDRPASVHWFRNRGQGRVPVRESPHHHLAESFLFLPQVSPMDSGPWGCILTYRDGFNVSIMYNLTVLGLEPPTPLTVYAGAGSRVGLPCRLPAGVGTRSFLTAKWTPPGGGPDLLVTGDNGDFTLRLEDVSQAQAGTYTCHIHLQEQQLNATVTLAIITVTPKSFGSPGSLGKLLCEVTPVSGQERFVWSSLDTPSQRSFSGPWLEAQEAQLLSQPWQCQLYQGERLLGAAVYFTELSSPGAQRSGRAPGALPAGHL

[9] = biological target: T4, Human LAG3 ECD-Fc (human, UniProt P18627 23-450); assay: SPR, antibody captured on Protein A/G, LAG3 ECD-Fc as analyte, 1:1 Langmuir fit
T4 construct: extracellular domain; 23-450 is stated only for the immunogen; also called recombinant human LAG3 extracellular domain fused to human Fc; hLAG3-hlgFc; not shown: Fc
T4 sequence (looked up): T3 sequence (looked up)

[10] = biological target: T4, Human LAG3 ECD-Fc; assay: blocking assay by FACS: LAG3 ECD-Fc pre-incubated with the antibody, then binding to MHC II on Raji cells detected with PE anti-human IgG, % inhibition against antibody concentration

T1 sequence (Q15116 25-288): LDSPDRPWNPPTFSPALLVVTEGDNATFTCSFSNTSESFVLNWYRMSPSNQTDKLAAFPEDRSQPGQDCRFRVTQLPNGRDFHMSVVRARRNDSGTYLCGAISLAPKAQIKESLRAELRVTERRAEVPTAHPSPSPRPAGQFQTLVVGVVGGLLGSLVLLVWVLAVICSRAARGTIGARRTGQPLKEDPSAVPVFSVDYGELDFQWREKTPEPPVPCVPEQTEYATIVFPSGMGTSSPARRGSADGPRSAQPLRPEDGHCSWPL
T2 sequence (Q15116 21-170 limits assumed, form in doubt): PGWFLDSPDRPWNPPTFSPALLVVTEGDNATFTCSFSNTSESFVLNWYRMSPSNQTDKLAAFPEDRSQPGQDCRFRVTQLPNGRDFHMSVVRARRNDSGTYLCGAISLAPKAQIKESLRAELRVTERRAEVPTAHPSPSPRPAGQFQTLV

Row | Binder | Kd [2] [nM] | IC90 [3] [nM] | IC90 [5] [nM] | Kd [9] [nM] | IC50 (read off the curve) [10] [nM] | other results
1 | B1 | 16.6 | 2.12 | 2.09 |  |  | IC50 (read off the curve) [1]: ~1 nM; IC50 (read off the curve) [4]: ~0.8 nM
2 | B2 | 6 | 1.68 | 1.95 |  |  | IC50 (read off the curve) [6]: ~0.8 nM; IC50 (read off the curve) [7]: ~1 nM
3 | B3 | 61.8 | 2.97 | 3.64 |  |  | IC50 (read off the curve) [1]: ~1 nM; IC50 (read off the curve) [4]: ~1 nM
4 | B4 |  |  |  |  |  | binding result [8]: binds
5 | B5 |  |  |  | 0.1 |  | 
6 | B6 |  |  |  | 0.09 | ~0.7 | 
7 | B7 |  |  |  | 0.125 | ~1 | 
8 | B8 |  |  |  | 0.07 | ~1 | 
9 | B9 |  |  |  | 0.12 | ~0.8 | 
